Data reported in US20250269025A1 (AVENCELL THERAPEUTICS, published 2025).
No end group written: not given here.

Experiments:
[1] = target: T1, CD123 on CD123 positive AML cells (Oci-AML3, Molm-13, MV4-11, primary AML cells) (human, UniProt P26951 19-378); experiment: cell-based or functional assay
[2] = target: T1, CD123 on CD123 positive AML cells …; experiment: cell-based or functional assay; remark: listed apart in the source
[3] = target: T1, CD123 on CD123 positive AML cells …; experiment: cell-based or functional assay; remark: listed apart in the source
[4] = target: T1, CD123 on CD123 positive AML cells …; experiment: cellular binding assay per table caption, Molm-13 cells
[5] = target: T1, CD123 on CD123 positive AML cells …; experiment: cellular binding assay per table caption, Oci-AML3 cells
[6] = target: T2, La epitope 5B9 (SEQ ID No. 28) fused to human Fc domain (human, also: fused to human Fc domain, order, isotype, linker not given here); experiment: SPR, Biacore X100, La epitope 5B9-human Fc on CM5 chip; KD 5B9 (second number of the cell)
T2 construct: Coupled to a CM5 sensor chip; not shown: human Fc domain
T2 chain: KPLPEVTDEY
Protocol: Furthermore, binding of different variants of the targeting module according to the invention was analyzed using the La epitope 5B9 (SEQ ID No. 28) fused to human Fc domain which was coupled to a CM5 sensor chip on a Biacore X100 device (FIG. 3). The targeting modules were purified monomers. The targeting modules were concentrated between 2.47 to 200 nM and measured in technical duplicates. For data fitting and KD calculation a two-state-reaction binding model was applied.

[7] = target: T3, human CD123-Fc (human, UniProt P26951 19-305, limits assumed); experiment: SPR, Biacore X100, human CD123-Fc on CM5 chip, 1:1 model; KD CD123 (first number of the cell)
T3 construct: Coupled to a CM5 sensor chip; also called soluble recombinant CD123; not shown: Fc part
T3 sequence (looked up): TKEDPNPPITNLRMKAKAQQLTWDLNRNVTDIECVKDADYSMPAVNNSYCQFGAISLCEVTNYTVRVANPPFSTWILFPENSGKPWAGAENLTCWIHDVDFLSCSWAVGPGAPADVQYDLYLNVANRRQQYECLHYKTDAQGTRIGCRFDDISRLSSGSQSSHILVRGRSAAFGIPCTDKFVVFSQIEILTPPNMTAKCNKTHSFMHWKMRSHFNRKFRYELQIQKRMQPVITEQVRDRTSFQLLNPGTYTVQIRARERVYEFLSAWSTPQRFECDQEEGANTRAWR
Protocol: Binding of different variants of the targeting module according to the invention was analyzed by SPR measurements using human CD123-Fc coupled to a CM5 sensor chip on a Biacore X100 device (FIG. 2). Targeting modules were purified monomer except for the targeting module according to SEQ ID No. 8. […] For data fitting and KD calculation a 1:1 binding model was applied.

[8] = target: T1, CD123 on CD123 positive AML cells …; experiment: flow cytometry on Oci-AML3 cells, anti-His-PE detection. Half-maximal binding from a four-parameter fit of gMFI. Unit taken from the concentration axis [M]
Protocol: Cellular binding of CD123-binding targeting modules (TM) was tested on CD123 positive target cell lines Oci-AML3 and Molm-13: A) SEQ ID No. 5 to Oci-AML3, B) SEQ ID No. 9 to Oci-AML3, C) SEQ ID No. 4 to Molm-13 and D) SEQ ID No. 6 to Molm-13. The affinity of TMs was analyzed by flow cytometry. The TMs were titrated on an AML cell lines and then detected by a mouse anti-His-tag antibody conjugated to phycoerythrin.
Different concentrations of R-TM123 were incubated with cells, washed and quantified. A dose-response curve was obtained when the geometric mean fluorescence (MFI) was plotted against the TM concentration.

EC50 [4]: 1.2 pM
EC50 [5]: 3 pM
Kd [6]: 3400 pM
Kd [7]: 23 pM
Kd [8]: 2920 pM
B1: targeting module according to SEQ ID No. 5 (bispecific antibody)
chain: EVQLQQSGPELVKPGASVKMSCKASGYTFTDYYMKWVKQSHGKSLEWIGDIIPSNGATFYNQKFKGKATLTVDRSSSTAYMHLNSLTSEDSAVYYCTRSHLLRASWFAYWGQGTLVTVSAASGGGGSGGGGSGGGGSDFVMTQSPSSLTVTAGEKVTMSCKSSQSLLNSGNQKNYLTWYLQKPGQPPKLLIYWASTRESGVPDRFTGSGSGTDFTLTISSVQAEDLAVYYCQNDYSYPYTFGGGTKLEIKAAARGDIVMTQSPDSLAVSLGERATINCKSSQSLLNSRTPKNYLAWYQQKPGQPPKLLIYWASTRKSGVPDRFSGSGSGTDFTLTISSLQAEDVAVYYCKQSYNLLTFGGGTKVEIKGGGGSGGGGSGASAAGGGGSGGGGSQVQLVQSGAEVKKPGASVKVSCKASGYTFTHYYIYWVRQAPGQGLEWMGGVNPSNGGTHFNEKFKSRVTMTRDTSISTAYMELSRLRSDDTAVYYCARSEYDYGLGFAYWGQGTLVTVSSGGGGSHHHHHHHH
notes: also called R-TM123; muCD123 + 5B9-VL-VH
EC50 of R-TM123 for RevCAR-T mediated lysis of MV4-11, Donor #2 [1]: 4.2 pM
EC50 of R-TM123 for RevCAR-T mediated lysis of MV4-11, Donor #3 [1]: 3.8 pM
EC50 of R-TM123 for RevCAR-T mediated lysis of MV4-11, Donor #4 [1]: 3.3 pM
EC50 of R-TM123 for RevCAR-T mediated lysis of MV4-11, Mean [1]: 3.5 pM
EC50 of R-TM123 for RevCAR-T mediated lysis of OCI-AML3, Donor #1 [1]: 8.6 pM
EC50 of R-TM123 for RevCAR-T mediated lysis of OCI-AML3, Donor #2 [1]: 6.7 pM
EC50 of R-TM123 for RevCAR-T mediated lysis of OCI-AML3, Donor #3 [1]: 4.9 pM
EC50 of R-TM123 for RevCAR-T mediated lysis of OCI-AML3, Donor #4 [1]: 2.7 pM
EC50 of R-TM123 for RevCAR-T mediated lysis of OCI-AML3, Mean [1]: 5.7 pM
EC50 of R-TM123 for GM-CSF release by RevCAR-T, co-culture with MOLM-13 [2]: 37.7 pM
EC50 of R-TM123 for Granzyme B release by RevCAR-T, co-culture with MOLM-13 [2]: 4.4 pM
EC50 of R-TM123 for IFN-γ release by RevCAR-T, co-culture with MOLM-13 [2]: 19.3 pM
EC50 of R-TM123 for IL-2 release by RevCAR-T, co-culture with MOLM-13 [2]: 63.9 pM
EC50 of R-TM123 for IL-4 release by RevCAR-T, co-culture with MOLM-13 [2]: 54.2 pM
EC50 of R-TM123 for Perforin release by RevCAR-T, co-culture with MOLM-13 [2]: 3.7 pM
EC50 of R-TM123 for TNF-α release by RevCAR-T, co-culture with MOLM-13 [2]: 53.9 pM
EC50 of R-TM123 for lysis of primary AML cells AML 1 by RevCAR-T, Donor #2 [3]: 3.4 pM
EC50 of R-TM123 for lysis of primary AML cells AML 1 by RevCAR-T, Donor #3 [3]: 2.9 pM
EC50 of R-TM123 for lysis of primary AML cells AML 1 by RevCAR-T, Donor #4 [3]: 1.8 pM
EC50 of R-TM123 for lysis of primary AML cells AML 1 by RevCAR-T, Mean [3]: 2.7 pM
EC50 of R-TM123 for lysis of primary AML cells AML 3 by RevCAR-T, Donor #2 [3]: 3 pM
EC50 of R-TM123 for lysis of primary AML cells AML 3 by RevCAR-T, Donor #3 [3]: 3.8 pM
EC50 of R-TM123 for lysis of primary AML cells AML 3 by RevCAR-T, Donor #4 [3]: 2.2 pM
EC50 of R-TM123 for lysis of primary AML cells AML 3 by RevCAR-T, Mean [3]: 3 pM
EC50 of R-TM123 for lysis of primary AML cells AML 4 by RevCAR-T, Donor #2 [3]: 1.7 pM
EC50 of R-TM123 for lysis of primary AML cells AML 4 by RevCAR-T, Donor #3 [3]: 3.1 pM
EC50 of R-TM123 for lysis of primary AML cells AML 4 by RevCAR-T, Donor #4 [3]: 1.8 pM
EC50 of R-TM123 for lysis of primary AML cells AML 4 by RevCAR-T, Mean [3]: 2.2 pM
EC50 of R-TM123 for lysis of primary AML cells AML 5 by RevCAR-T, Donor #2 [3]: 2.2 pM
EC50 of R-TM123 for lysis of primary AML cells AML 5 by RevCAR-T, Donor #3 [3]: 3.6 pM
EC50 of R-TM123 for lysis of primary AML cells AML 5 by RevCAR-T, Donor #4 [3]: 2.1 pM
EC50 of R-TM123 for lysis of primary AML cells AML 5 by RevCAR-T, Mean [3]: 2.6 pM
